Common to all, as to assay: SPR, antibody captured, C2 as analyte;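 note: biacore SPR at 37 °C, anti-C2 mAbs captured via goat anti-human IgG on CM5 chips, double-referenced sensorgrams fit to a 1:1 kinetic or steady-state model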
For orientation: Surface plasmon resonance follows binding to a sensor surface in real time, without labels.

For test [1], the target named is T1, human C2 D511A (human, UniProt P06681 21-752).
T1 sequence: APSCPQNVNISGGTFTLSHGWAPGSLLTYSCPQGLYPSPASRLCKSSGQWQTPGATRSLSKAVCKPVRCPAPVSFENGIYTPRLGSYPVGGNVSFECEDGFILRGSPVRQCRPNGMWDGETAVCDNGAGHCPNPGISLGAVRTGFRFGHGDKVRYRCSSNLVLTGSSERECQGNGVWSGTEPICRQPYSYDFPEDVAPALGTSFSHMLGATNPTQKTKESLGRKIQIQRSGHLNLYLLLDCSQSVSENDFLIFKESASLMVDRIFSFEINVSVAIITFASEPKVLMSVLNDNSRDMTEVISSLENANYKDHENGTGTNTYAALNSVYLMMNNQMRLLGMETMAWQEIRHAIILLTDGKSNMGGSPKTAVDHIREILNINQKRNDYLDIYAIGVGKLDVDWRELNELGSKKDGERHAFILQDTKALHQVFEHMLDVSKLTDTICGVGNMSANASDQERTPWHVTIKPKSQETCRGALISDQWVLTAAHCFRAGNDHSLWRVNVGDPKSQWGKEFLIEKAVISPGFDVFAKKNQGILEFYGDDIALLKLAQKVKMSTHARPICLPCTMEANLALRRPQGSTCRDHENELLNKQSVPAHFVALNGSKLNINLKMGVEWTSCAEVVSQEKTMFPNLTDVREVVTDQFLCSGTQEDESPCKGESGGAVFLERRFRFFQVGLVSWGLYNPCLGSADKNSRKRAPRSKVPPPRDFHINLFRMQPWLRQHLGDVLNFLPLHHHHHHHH

Test [2] addresses T2, human C2 T491A (human, UniProt P06681 21-752).
T2 sequence: T1 sequence with T471A, A491D

The target of test [3] is T3, human C2 R510A (human, UniProt P06681 21-752).
T3 sequence: T1 sequence with R490A, A491D

For test [4], the target named is T4, human C2 Y558A (human, UniProt P06681 21-752).
T4 sequence: T1 sequence with A491D, Y538A

Changes are numbered by the printed parent chain.

A word on the Kd: it is the constant that tells how readily two partners part at equilibrium. A lower Kd goes with tighter binding.

B1: RF16-226 (antibody, human IgG4 S228P, lambda)
heavy: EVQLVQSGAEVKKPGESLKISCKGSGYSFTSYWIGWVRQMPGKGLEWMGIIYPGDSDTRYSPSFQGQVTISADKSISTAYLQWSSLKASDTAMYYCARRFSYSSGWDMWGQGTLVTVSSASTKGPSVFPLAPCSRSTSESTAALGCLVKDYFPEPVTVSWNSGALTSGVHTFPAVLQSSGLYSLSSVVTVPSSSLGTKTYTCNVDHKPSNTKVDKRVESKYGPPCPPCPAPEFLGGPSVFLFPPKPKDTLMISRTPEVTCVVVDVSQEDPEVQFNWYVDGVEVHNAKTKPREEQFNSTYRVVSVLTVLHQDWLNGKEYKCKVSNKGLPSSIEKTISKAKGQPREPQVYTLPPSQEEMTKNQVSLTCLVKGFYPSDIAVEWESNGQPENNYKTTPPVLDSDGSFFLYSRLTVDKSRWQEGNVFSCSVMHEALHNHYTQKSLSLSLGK
light: SYELTQPPSVSVSPGQTARITCSGDALTSKYVAWYQQKSGLAPLLVIYEDTRRPSGIPAKFSGSSSGSVATLTISGAHGDDEADYYCYSTDASGHQRVFGGGTKLTVLSQPKAAPSVTLFPPSSEELQANKATLVCLISDFYPGAVTVAWKADGSPVKAGVETTKPSKQSNNKYAASSYLSLTPEQWKSHRSYSCQVTHEGSTVEKTVAPTECS
notes: pH-dependent anti-C2 antibody from a phage display library; also called WT
For B1, the Kd was 31.2 nM in test [1], 15.5 nM in test [2], 110 nM in test [3] and 158 nM in test [4].
